Laboratory results from US20150148405A1 (Johns Hopkins, published 2015).

Target: ribosomal protein S6 (RPS6) (mouse, UniProt P62754 1-249)
Test: co-immunoprecipitation with GW182 antiserum from hippocampal neuron lysates, immunoblot
Protocol: Proteins and mRNAs associated with P-body component GW182 were isolated through immunoprecipitation of GW182 by modification of previously published protocols (Keene et al., 2006; Moser et al., 2009). Primary cultures of mouse hippocampal neurons (DIV 14-15) were incubated in serum-reduced medium (0.5% B27 supplement) for 2 hours, followed by […] Actinomycin-D for […] and mock or BDNF-stimulation for 30˜60 min. Cell lysates were harvested in polysomal lysis buffer (100 mM KCl, 5 mM MgCl₂, 10 mM HEPES pH 7.0, 0.5% NP-40) with protease inhibitor cocktail and freshly added 20 mM EDTA, 1 mM DTT, 100 U/mL RNase inhibitor (RNaseOut, Invitrogen) and 400 μM Vanadyl ribonucleoside complexes (SIGMA). Lysates were centrifuged and the supernatants pre-cleared by one-hour incubation with recombinant protein G beads pre-washed in NT2 buffer (50 mM Tris-HCl pH 7.4, 150 mM NaCl, 1 mM MgCl₂, 0.05% NP-40). Antibody coating of protein G beads was carried out with antiserum against GW182 (18033, gift of M. Fritzler) or control isotype-specific serum in NT2 buffer plus protease inhibitor for 4 hours after blocking with NT2 buffer plus 5% BSA and 1 mg/mL heparin for 1 hour. For immunoprecipitation (IP), equal amounts of lysate protein (2-5 mg) was incubated with antibody-coated beads and tumbled for 4 hours at 4° C., followed by washing. […]

B1: GW182 (other)
chain: MRELEAKATKDVERNLSRDLVQEEEQLMEEKKKKKDDKKKKEAAQKKATEQKIKVPEQIKPSVSQPQPANSDNGTSTATSTNNNAKRATASNQQPPPPQQQQPQQEQQQQQPQALPRYPREVPPRFRHQEHKQLLKRGQHFPVIAANLGSAVKVLNSQSESSAVTNQQPQNNGEVQNSKSQSDINHNTSGSHYENCQRGPVSSTSDCSTSCKNAVNDLLEKEAWPSAPGSDPELAPECIDADSASNSESERNITVMASGNTGGEKDGLRNSTGLGSQSKFVVGSSSNNVGHGSSTGPWGFPHGALISTCQVSVDAPESKPESSNNRMNAWGTVSSSSNGGLNPSTLNSASNHGAWPVLENNGLALKGPVGSGSSGINIQCSTIGQMPNNQNINSKVSGSSTHGTWGSLQETCEPEVSGTQKVSFSGQPQNITTETTGPNNTTNFMTSSLPNSGSVQNNELPTSNPGAWRVSTMNHPQIQAPSVMNGTSLSHLSNGESKTGGSYGTTWGAYGSNYSGDKCAGPNGQANGDTVNATLMQPGINGPMGTNFQVNTNKGGGVWEPGTVNSQSSPWGSGNGANSGGSRRGWGSPAQNTGTGLSSVEWNKLPSNQHSNDSANGNGKKLTNGWKSTEEDDQGSATSQTNEQNSVWAKAGGTVESDGSAESTGRLEEKVTGESQSRDRRKIDQHTLLQSIVNRTDLDPRVLSNSGWGQTPIKQNTAWDTETSPRGERKTDNGTEAWGSSATQTFNSGACTDKTSPNSNDTSSVSGWGDPKPTLRWGDSKGSNCQGGWEDDSAATGMIKSNQWGGCKEDKSTWNDSQKSKQGWGDGQKSSQGWSISAGDNWGESSRSNHWGEANKKSSSGGSDSDRSISGWNELGKTSSFTWGNNINPNNSSGWDESSKPNSSQGWGDPPKCNQSLGWGDSSKPVSSPDWNKQQDIVGSWGIPPATSKPPGTGWLGGPIPAPAKEEEPTGWEEPSPESIRRKMEIDDGTSAWGDPSKYNYKNVNMWNKNIPEASGRSDQQAQMHRLLPAASAVSSKETSSGSGWGEPWAEPSTPATTVDNGTSAWGKPIDSGPSWGEPITAASNASTWGSSSVGPQSLSKSGPKSMQDGWCGDDMPLPGSRPTGWEEEEDVEIGMWNSNSSQELNSSLNWPPYTKKMSSKGLSGKKRRRERGMMKGGNKQEDAWINPFVKQFSNISFSRDSPEENVQSNKMDLSGGMLQDKRMEIDKHSLNIGDYNRTVGKGPGSRPQISKESSMERNPYFDKNGNPNMFGVGNTAAQPRGMQQPPAQPLSSSQPNLRAQVPPPLLSPQVPVSLLKYAPNNGGLNPLFGPQQVAMLNQLSQLNQLSQISQLQRLLAQQQRAQSQRSAPSANRQQQDQQGRPLSVQQQMMQQSRQLDPSLLVKQQTPPSQQPLHQPAMKSFLDNVMPHTTPELQKGPSPVNAFSNFPIGLNSNLNVNMDMNSIKEPQSRLRKWTTVDSMSVNTSLDQNSSKHGAISSGFRLEESPFVPYDFMNSSTSPASPPGSIGDGWPRAKSPNGSSSVNWPPEFRPGEPWKGYPNIDPETDPYVTPGSVINSLSINTVREVDHLRDRNSGSSSSLNTTLPSTSAWSSIRASNYNVPLSSTAQSTSARNSDSKLTWSPGSVTNTSLAHELWKVPLPPKNITAPSRPPPGLTGQKPPLSTWDNSPLRVGGGWGNSDARYTPGSSWGESSSGRITNWLVLKNLTPQIDGSTLRTLCMQHGPLITFHLNLPHGNALVRYSSKEEVVKAQKSLHMCVLGNTTILAEFASEEEISRFFAQSQSLTPSPGWQSLGSSQSRLGSLDCSHSFSSRTDVNHWNGAGLSGANCGDLHGTSLWGTPHYSTSLWGPPSSDPRGISSPSPINAFLSVDHLGGGGESM
notes: Endogenous protein pulled down from neuronal lysate with GW182 antiserum 18033 (gift of M. Fritzler) on protein G beads; also called TNRC6a; P-body component GW182
B1: no binding.
